Results from US20220010021A1 (Sanofi, published 2022).
Numbering of substitutions follows the chain as printed. Numbers in names are those of the source. Blank lines part the entries; values can stand above or below the binder they belong to.

Experiments:
[1] = biological target: human FGFR1c + KLB receptor complex on HEK293 iLite FGF21 reporter cells (human, UniProt P11362 22-822; Q86Z14 1-1044); assay: cell-based or functional assay
[2] = biological target: cell surface receptor composed of FGFR1c and co-receptor beta-Klotho (KLB) (human, UniProt P11362 22-822; Q86Z14 1-1044); assay: cell-based or functional assay; on Mean E max, Luciferase reporter gene assay: reference of the scale not given here
cell surface receptor composed of FGFR1c and co-receptor beta-Klotho (KLB), sequence (P11362 22-822, chain 1 of 2): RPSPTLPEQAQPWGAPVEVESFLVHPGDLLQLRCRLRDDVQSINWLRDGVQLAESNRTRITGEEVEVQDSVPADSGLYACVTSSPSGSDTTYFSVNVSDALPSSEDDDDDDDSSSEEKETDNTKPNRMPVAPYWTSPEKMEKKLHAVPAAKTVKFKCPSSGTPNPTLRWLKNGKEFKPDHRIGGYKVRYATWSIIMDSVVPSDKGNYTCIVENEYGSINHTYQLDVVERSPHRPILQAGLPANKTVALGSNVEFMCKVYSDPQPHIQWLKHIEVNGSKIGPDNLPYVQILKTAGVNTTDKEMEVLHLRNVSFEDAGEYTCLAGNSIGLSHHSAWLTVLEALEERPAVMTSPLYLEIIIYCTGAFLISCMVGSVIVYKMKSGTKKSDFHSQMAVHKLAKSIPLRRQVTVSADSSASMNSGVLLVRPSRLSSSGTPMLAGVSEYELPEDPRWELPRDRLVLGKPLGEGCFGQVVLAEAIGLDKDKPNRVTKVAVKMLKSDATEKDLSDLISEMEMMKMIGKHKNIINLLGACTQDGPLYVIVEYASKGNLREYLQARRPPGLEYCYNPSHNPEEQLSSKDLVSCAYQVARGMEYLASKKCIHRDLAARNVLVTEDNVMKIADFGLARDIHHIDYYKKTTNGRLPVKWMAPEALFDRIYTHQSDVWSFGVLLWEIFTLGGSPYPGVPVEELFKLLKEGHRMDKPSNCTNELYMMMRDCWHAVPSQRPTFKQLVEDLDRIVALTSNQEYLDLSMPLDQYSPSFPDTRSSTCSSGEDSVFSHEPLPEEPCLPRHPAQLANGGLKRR
cell surface receptor composed of FGFR1c and co-receptor beta-Klotho (KLB), sequence (Q86Z14 whole entry, chain 2 of 2): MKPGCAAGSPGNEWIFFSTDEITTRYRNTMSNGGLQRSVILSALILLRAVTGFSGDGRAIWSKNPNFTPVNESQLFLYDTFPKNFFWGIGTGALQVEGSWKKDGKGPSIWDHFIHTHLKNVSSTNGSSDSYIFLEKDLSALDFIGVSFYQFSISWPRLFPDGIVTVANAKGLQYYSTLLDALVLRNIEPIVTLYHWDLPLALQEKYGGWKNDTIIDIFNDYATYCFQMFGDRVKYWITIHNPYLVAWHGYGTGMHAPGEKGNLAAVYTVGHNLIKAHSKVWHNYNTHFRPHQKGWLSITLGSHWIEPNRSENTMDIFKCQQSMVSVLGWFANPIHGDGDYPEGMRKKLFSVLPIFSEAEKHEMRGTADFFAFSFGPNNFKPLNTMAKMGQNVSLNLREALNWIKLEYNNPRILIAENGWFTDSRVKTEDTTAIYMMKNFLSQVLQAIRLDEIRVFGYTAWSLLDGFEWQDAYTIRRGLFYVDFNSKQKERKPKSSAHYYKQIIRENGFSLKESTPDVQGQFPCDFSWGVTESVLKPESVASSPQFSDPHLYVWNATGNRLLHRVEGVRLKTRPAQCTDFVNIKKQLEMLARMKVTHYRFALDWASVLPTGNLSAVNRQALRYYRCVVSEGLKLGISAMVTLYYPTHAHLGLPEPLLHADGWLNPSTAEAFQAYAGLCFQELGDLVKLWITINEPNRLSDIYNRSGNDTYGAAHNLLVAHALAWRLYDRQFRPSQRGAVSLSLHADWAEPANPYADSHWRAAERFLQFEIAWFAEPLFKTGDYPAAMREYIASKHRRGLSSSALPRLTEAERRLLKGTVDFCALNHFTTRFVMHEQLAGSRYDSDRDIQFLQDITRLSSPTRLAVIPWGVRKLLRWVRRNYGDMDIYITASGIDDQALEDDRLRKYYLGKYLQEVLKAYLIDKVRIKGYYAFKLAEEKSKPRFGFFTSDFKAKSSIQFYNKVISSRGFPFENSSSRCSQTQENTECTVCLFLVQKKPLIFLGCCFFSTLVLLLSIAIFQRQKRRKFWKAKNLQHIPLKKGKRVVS

human FGFR1c + KLB receptor complex on HEK293 iLite FGF21 reporter cells, sequence (P11362 22-822, chain 1 of 2): as the sequence (P11362 22-822, chain 1 of 2) above
human FGFR1c + KLB receptor complex on HEK293 iLite FGF21 reporter cells, sequence (Q86Z14 whole entry, chain 2 of 2): as the sequence (Q86Z14 whole entry, chain 2 of 2) above

B2: 16H7 light chain variant D95C (antibody, IgG4, V domains shown)
VH: not shown
VL: SYVLTQPPSVSVAPGQTARITCGGNNIGSESVHWYQQKPGQAPVLVVYDDSDRPSGIPERFSGSNSGNTATLTISRVEAGDEADYYCQVWDGNSCHVVFGGGTKLTVLG
Mean E max, Luciferase reporter gene assay [2]: 4%

B4: 16H7 light chain variant D95F (antibody, IgG4, V domains shown)
VH: not shown
VL: B2 VL with C95F
Mean E max, Luciferase reporter gene assay [2]: -1%

B5: 16H7 light chain variant D95W (antibody, IgG4, V domains shown)
VH: not shown
VL: B2 VL with C95W
Mean E max, Luciferase reporter gene assay [2]: 5%

B7: 16H7 light chain variant D95R (antibody, IgG4, V domains shown)
VH: not shown
VL: B2 VL with C95R
Mean E max, Luciferase reporter gene assay [2]: 4%

B8: 16H7 light chain variant D49N (antibody, IgG4, V domains shown)
VH: not shown
VL: B2 VL with D49N, C95D
Mean E max, Luciferase reporter gene assay [2]: 108% | Mean EC50, Luciferase reporter gene assay [2]: 0.19 nM

B10: 16H7 light chain variant D49H (antibody, IgG4, V domains shown)
VH: not shown
VL: B2 VL with D49H, C95D
Mean E max, Luciferase reporter gene assay [2]: 90% | Mean EC50, Luciferase reporter gene assay [2]: 0.183 nM

B11: 16H7 light chain variant D95G (antibody, IgG4, V domains shown)
VH: not shown
VL: B2 VL with C95G
Mean E max, Luciferase reporter gene assay [2]: 47% | Mean EC50, Luciferase reporter gene assay [2]: 6.56 nM

B12: 16H7 light chain variant D95E (antibody, IgG4, V domains shown)
VH: not shown
VL: B2 VL with C95E
Mean E max, Luciferase reporter gene assay [2]: 44% | Mean EC50, Luciferase reporter gene assay [2]: 8.04 nM

B13: 16H7 light chain variant D95V (antibody, IgG4, V domains shown)
VH: not shown
VL: B2 VL with C95V
Mean E max, Luciferase reporter gene assay [2]: 3%

B17: 16H7 light chain variant H33K (antibody, IgG4, V domains shown)
VH: not shown
VL: B2 VL with H33K, C95D
Mean E max, Luciferase reporter gene assay [2]: 96% | Mean EC50, Luciferase reporter gene assay [2]: 0.174 nM

B18: 16H7 light chain variant D49Y (antibody, IgG4, V domains shown)
VH: not shown
VL: B2 VL with D49Y, C95D
Mean E max, Luciferase reporter gene assay [2]: 99% | Mean EC50, Luciferase reporter gene assay [2]: 0.151 nM

B20: 16H7 light chain variant H33W (antibody, IgG4, V domains shown)
VH: not shown
VL: B2 VL with H33W, C95D
Mean E max, Luciferase reporter gene assay [2]: 80% | Mean EC50, Luciferase reporter gene assay [2]: 0.666 nM

B21: 16H7 light chain variant H33R (antibody, IgG4, V domains shown)
VH: not shown
VL: B2 VL with H33R, C95D
Mean E max, Luciferase reporter gene assay [2]: 68% | Mean EC50, Luciferase reporter gene assay [2]: 2.19 nM

B23: 16H7 light chain variant D95P (antibody, IgG4, V domains shown)
VH: not shown
VL: B2 VL with C95P
Mean E max, Luciferase reporter gene assay [2]: 4%

B25: 16H7 light chain variant D95N (antibody, IgG4, V domains shown)
VH: not shown
VL: B2 VL with C95N
Mean E max, Luciferase reporter gene assay [2]: 78% | Mean EC50, Luciferase reporter gene assay [2]: 1.03 nM

B26: 16H7 light chain variant H33P (antibody, IgG4, V domains shown)
VH: not shown
VL: B2 VL with H33P, C95D
Mean E max, Luciferase reporter gene assay [2]: 90% | Mean EC50, Luciferase reporter gene assay [2]: 0.253 nM

B30: 16H7 light chain variant D49A (antibody, IgG4, V domains shown)
VH: not shown
VL: B2 VL with D49A, C95D
Mean E max, Luciferase reporter gene assay [2]: 100% | Mean EC50, Luciferase reporter gene assay [2]: 0.106 nM

B31: 16H7 light chain variant D95S (antibody, IgG4, V domains shown)
VH: not shown
VL: B2 VL with C95S
Mean E max, Luciferase reporter gene assay [2]: 37%

B32: 16H7 light chain variant D50K (antibody, IgG4, V domains shown)
VH: not shown
VL: B2 VL with D50K, C95D
Mean E max, Luciferase reporter gene assay [2]: 109%

B33: 16H7 light chain variant S94K (antibody, IgG4, V domains shown)
VH: not shown
VL: B2 VL with S94K, C95D
Mean E max, Luciferase reporter gene assay [2]: 104% | Mean EC50, Luciferase reporter gene assay [2]: 0.185 nM

The next lines start with the values.

EC50 [1]: 0.03 nM | Emax [1]: 1400%
B1: Ab0453 (antibody, IgG4, V domains shown)
VH: QVTLKESGPVLVKPTETLTLTCTVSGFSLSNARVGVSWIRQPPGKALEWLAHIFSNDEKSYSTSLKSRLTISKDTSKSQVVLTMTNMDPVDTATYYCARSVVTGGYYYEGMDVWGQGTTVTVSS
VL: B2 VL with N25S, D49S, D50E, D91E, N93E, C95D

EC50 [1]: 0.05 nM | Emax [1]: 951%
B3: Ab0463 (antibody, IgG4, V domains shown)
VH: B1 VH with N31Y
VL: B2 VL with N25S, D49E, D50E, D91E, N93E, C95D

EC50 [1]: 0.02 nM | Emax [1]: 1390%
B6: Ab0461 (antibody, IgG4, V domains shown)
VH: B1 VH
VL: B2 VL with N25S, D49E, D50E, D91E, N93E, C95D

EC50 [1]: 0.07 nM | Emax [1]: 1080%
B9: Ab0456 (antibody, IgG4, V domains shown)
VH: B1 VH with S30T, N31Y
VL: B2 VL with N25S, D49S, D50E, D91E, N93E, C95D

EC50 [1]: 0.04 nM | Emax [1]: 1110%
B14: Ab0459 (antibody, IgG4, V domains shown)
VH: B1 VH with N31Y
VL: B2 VL with N25S, D49S, D50A, D91E, N93E, C95D

EC50 [1]: 0.05 nM | Emax [1]: 1050%
B15: Ab0460 (antibody, IgG4, V domains shown)
VH: B1 VH with S30T, N31Y
VL: B2 VL with N25S, D49S, D50A, D91E, N93E, C95D

Mean E max, Luciferase reporter gene assay [2]: 85% | Mean EC50, Luciferase reporter gene assay [2]: 0.164 nM
B16: 16H7 light chain variant V32P (antibody, IgG4, V domains shown)
VH: not shown
VL: B2 VL with V32P, C95D

EC50 [1]: 0.03 nM | Emax [1]: 1340%
B19: Ab0462 (antibody, IgG4, V domains shown)
VH: B1 VH with S30T
VL: B2 VL with N25S, D49E, D50E, D91E, N93E, C95D

EC50 [1]: 0.03 nM | Emax [1]: 1390%
B22: Ab0454 (antibody, IgG4, V domains shown)
VH: B1 VH with S30T
VL: B2 VL with N25S, D49S, D50E, D91E, N93E, C95D

EC50 [1]: 0.02 nM | Emax [1]: 910%
B24: Ab0464 (antibody, IgG4, V domains shown)
VH: B1 VH with S30T, N31Y
VL: B2 VL with N25S, D49E, D50E, D91E, N93E, C95D

EC50 [1]: 0.02 nM | Emax [1]: 1520%
B27: Ab0457 (antibody, IgG4, V domains shown)
VH: B1 VH
VL: B2 VL with N25S, D49S, D50A, D91E, N93E, C95D

EC50 [1]: 0.07 nM | Emax [1]: 1020%
B28: Ab0455 (antibody, IgG4, V domains shown)
VH: B1 VH with N31Y
VL: B2 VL with N25S, D49S, D50E, D91E, N93E, C95D

EC50 [1]: 0.02 nM | Emax [1]: 1430%
B29: Ab0458 (antibody, IgG4, V domains shown)
VH: B1 VH with S30T
VL: B2 VL with N25S, D49S, D50A, D91E, N93E, C95D
